The target of test [1] is rat GALR3 receptor (rat). Kind of test: displacement of porcine 125I-galanin, membranes of stable cell line 293-rGalR3-105.
Test [2] deals with human GALR3 receptor (human) (UniProt O60755). As to the kind of experiment: displacement of porcine 125I-galanin, membranes of stable LM(tk-) line L-hGalR3-228.
The target of test [3] is rat GALR1 receptor (rat). As to the kind of experiment: displacement of porcine 125I-galanin, membranes of transiently transfected COS-7 cells.
The target of test [4] is rat GALR2 receptor (rat) (UniProt O08726). Described as above.
Sequence of rat GALR2 receptor (rat) (O08726 whole entry): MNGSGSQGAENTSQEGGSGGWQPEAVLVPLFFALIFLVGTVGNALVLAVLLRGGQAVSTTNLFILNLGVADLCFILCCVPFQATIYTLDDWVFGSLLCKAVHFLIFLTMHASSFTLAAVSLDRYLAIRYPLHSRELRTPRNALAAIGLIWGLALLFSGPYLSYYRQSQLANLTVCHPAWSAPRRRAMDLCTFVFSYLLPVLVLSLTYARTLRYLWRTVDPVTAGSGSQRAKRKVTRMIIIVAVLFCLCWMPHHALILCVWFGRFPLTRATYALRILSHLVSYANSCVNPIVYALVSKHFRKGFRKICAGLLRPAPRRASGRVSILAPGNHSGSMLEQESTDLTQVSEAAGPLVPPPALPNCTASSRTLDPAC
For test [5], the target named is rat GALR3 receptor (rat). The test is described as above.
The target in test [6] is rat GALR3 receptor (rat). As to the kind of experiment: displacement of porcine 125I-galanin, rat GalR3 transiently expressed in COS-7 membranes.
Test [7] addresses human GALR3 receptor (human) (UniProt O60755). As to the kind of experiment: cell-based or functional assay.
The target in test [8] is rat GALR3 receptor (rat). As to the kind of experiment: apparent binding affinity, rat GalR3 in COS-7 (repeats Table 4).

Sequence of human GALR3 receptor (human) (O60755 whole entry, form in doubt): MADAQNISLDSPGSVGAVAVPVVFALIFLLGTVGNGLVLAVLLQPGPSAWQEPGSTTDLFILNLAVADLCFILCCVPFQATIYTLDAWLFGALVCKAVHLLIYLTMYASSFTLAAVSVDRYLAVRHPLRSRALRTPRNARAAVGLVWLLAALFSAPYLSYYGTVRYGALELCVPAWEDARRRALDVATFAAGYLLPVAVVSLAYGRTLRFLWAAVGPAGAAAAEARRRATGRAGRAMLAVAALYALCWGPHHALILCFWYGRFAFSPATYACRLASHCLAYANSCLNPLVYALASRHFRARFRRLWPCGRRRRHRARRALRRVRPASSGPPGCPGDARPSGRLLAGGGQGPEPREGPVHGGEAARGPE

As for M35 (peptide), the Ki was found to be 3.2 nM in test [1]; 7.8 nM in test [2]; 0.33 nM in test [3]; 0.57 nM in test [4]; 6.7 nM in test [5]; 3.7 nM in test [6].

For galantide (peptide), the Ki in test [3] stood at 9.5 nM; in test [4] it was 2 nM; in test [5], 18 nM; in test [6] it was 9 nM.

In test [5], D-Trp2-galanin 1-16 (peptide) showed a Ki of more than 1000 nM.

Take C7 (peptide): the Oocyte EC50 (stimulation of GIRKs) in test [7] worked out at 343 nM. For the same substance, the Ki in test [8] turned out to be 23 nM; in test [1] it was 9.6 nM; in test [3] it was 16 nM; in test [5], 68 nM; in test [6], 23 nM.

The substance galanin -7 to +29 (peptide) showed an Oocyte EC50 (stimulation of GIRKs) in test [7] of 1910 nM.

D-Trp2-galanin 1-29 (peptide) gave a Ki in test [5] of more than 1000 nM.

The record behind these values is patent publication US20010009766A1.
